Results: US20100303887A1, “DHA and PEDF, a Therapeutic Composition for Nerve and Retinal Pigment Epithelial Cells” (priority 2007, published 2010)

Columns and labels:
[1] = system: Bid, Bax, and Bad; test: Pro-apoptotic protein expression in ARPE-19 cells under serum starvation/H2O2/TNFα oxidative stress (Western blot); type: cell-based, human; conditions: DHA 10 to 50 nM, with or without PEDF
Experimental: (§1) Exposure of ARPE-19 cells to growth factors. Cells at 75-80% confluence (72 hr growth in DMEM/F12+10% FBS) were serum-starved for 2 hr before exposure to growth factors. The serum-starved cells were treated with TNF-α (Sigma-Aldrich Corporation, St. Louis, Mo.) (10 ng/ml) and H2O2 (600 μM) to induce oxidative stress and challenged with increasing concentrations (10, 30, 50 nM) and PEDF (Chemicon International, Temecula, Calif.) (50 ng/ml) simultaneously with oxidative stress for 4 hr before harvesting for protein analysis. Cell extracts were made and protein concentrations were adjusted by Bio-Rad protein reagent and used for Western-blot analysis. […] Cells were analyzed to detect Hoechst-positive apoptotic cells.
(§2) Analysis of Bcl-2 and caspase-3 cleavage. Bcl-2 protein and caspase-3 cleavage were analyzed by Western-blot analysis. […] The membranes were probed with primary antibodies against Bcl-2 (Santa Cruz Biotechnology, Inc., Santa Cruz, Calif.) and cleaved caspase-3 (Asp-175) (Cell Signaling) at room temperature and treated for 20 minutes with the secondary antibody, goat anti-rabbit IgG: horseradish peroxidase, and horseradish peroxidase-conjugated anti-biotin antibody, then proteins were detected by using an ECL kit (Amersham Biosciences, Buckinghamshire, United Kingdom). […]

[2] = system: NPD1 synthesis; test: NPD1 synthesis and release from polarized primary human RPE cell monolayers (lipidomic analysis); type: cell-based; conditions: 72 hr
Experimental: Human RPE cells. Cultures of retinal pigment epithelial (RPE) cells were prepared. RPE cells were seeded onto Millicell-HA culture plate inserts (Millipore, Bradford, Mass.), placed in 24-well plates, and allowed to reach confluence. Consent for use of tissue for research was obtained in compliance with Federal and State law and institutional regulations. Cultures were maintained in Chee's essential replacement medium until the experiments were performed as described in J. Hu and D. Bok (2001) Mol Vis 7:14-19. The medium includes Eagle's minimal essential medium with calcium (MEM, Irvine Scientific, Irvine, Calif.), 1% heat-inactivated calf serum (JRH Bioscience, Lennexo, Kans.), amino acid supplements, and 1% bovine retinal extract. The Millicell-HA filter inserts allow separate manipulation of the culture media bathing the apical and basal surfaces of the RPE monolayer and measurement of the transepithelial resistance (TER), which provides a measure of cell differentiation and confluency. Cultures were used for experiments once they developed a TER of at least 400 Ω·cm^2, as measured by an Epithelial Volt-ohmmeter (EVOM, World Precision Instruments, New Haven, Conn.).
Exposure of RPE cells to growth factors. […] […] The lower chamber was filled with 500 μl media (bathing the basal cell monolayer surface) containing 0.1% HSA. Cells were incubated for 72 hours, then apical and basal media were removed and collected for analysis. After allowing the cells to rest for at least 72 hours on fresh media, the experiments were repeated.
Lipidomic analysis. Human RPE primary cell cultures or ARPE-19 cells were separated from culture media and washed with 1 ml PBS. After addition of 1 ml methanol, cells were scraped from plates or millicell membranes and collected for lipid extraction. Media was spun-down to separate cell debris, then 350 μl were collected in 1 ml of cold chloroform:methanol (1:1). Protein precipitates were then separated by centrifugation at 1500×g (5 min, 4° C.). Lipid extracts were collected, and kept under nitrogen at −80° C. until solid-phase purification; extracts were pre-equilibrated at pH 3.0 in 10% methanol/water, then loaded to 500 mg C18 columns (Varian, Inc., Palo Alto, Calif.), and eluted with 1% methanol/ethyl acetate. Eluates were concentrated on a N2 stream evaporator. Samples were loaded to a liquid chromatograph-tandem mass spectrometer (LC-TSQ Quantum, Thermo-Finnigan; Thermo Fisher Scientific, Waltham, Mass.) installed with a Biobasic-AX column (Thermo-Hypersil-Keystone, Thermo Fisher Scientific, Waltham, Mass.) (100 mm\2.1 mm, 5-μm particle sizes), and eluted in a linear gradient [100% solution A (40:60:0.01 methanol/water/acetic acid pH 4.5) to 100% solution B (99.99:0.01 methanol/acetic acid)], at a flow rate of 300 μl/min for 30 minutes. LC effluents were diverted to an electro-spray-ionization probe (ESI) on a TSQ Quantum (Thermo-Finnigan, Thermo Fisher Scientific, Waltham, Mass.) triple quadrupole mass spectrometer. NPD1 and resolving D1 were obtained by biogenic synthesis as described in N. G. Bazan, D. L. Birkle, and T. S. Reddy (1984) Biochem Biophys Res Commun. 125:741-74, and V. L. Marcheselli et al. (2003) J. Biol. Chem. 278:43807-43817. Erratum in: (2003) J Biol Chem 278:51974. Other lipid standards (Cayman Chem. Ann Arbor, Mich.) were used for tuning and optimization and to create calibration curves. The instrument was set on full-scan mode, to detect parent ions, and selected reaction mode (SRM) for quantitative analysis, to detect product ions, simultaneously. The selected parent/product ions (m/z) and collision energy (v) obtained by running on negative ion detection mode were: 359.2/153.1/20 for NPD1, 343.2/281.2/18 for resolving D1, 351.2/195.0/22 for 20HO-LTB4 (used as internal standard), 327.2/283.3/16 for DHA, 311.3/267.3/20 Arachidonic Acid-d8 (used as internal standard, IS).
Neurotrophins activated NPD1 synthesis in cultured primary human RPE cells. […]

[3] = system: NPD1 synthesis; test: NPD1 synthesis in cultured ARPE-19 cells (lipidomic analysis); type: cell-based, human; conditions: serum starvation/H2O2/TNFα oxidative stress for the combination
Experimental: Exposure of ARPE-19 cells to growth factors. Cells at 75-80% confluence (72 hr growth in DMEM/F12+10% FBS) were serum-starved for 2 hr before exposure to growth factors. The serum-starved cells were treated with TNF-α (Sigma-Aldrich Corporation, St. Louis, Mo.) (10 ng/ml) and H2O2 (600 μM) to induce oxidative stress and challenged with increasing concentrations (10, 30, 50 nM) and PEDF (Chemicon International, Temecula, Calif.) (50 ng/ml) simultaneously with oxidative stress for 4 hr before harvesting for protein analysis. Cell extracts were made and protein concentrations were adjusted by Bio-Rad protein reagent and used for Western-blot analysis. To study neuroprotection by DHA and PEDF in the oxidative stress-induced ARPE-19 cells, 72 hr cells were serum-starved for 8 hr before the introduction of oxidative stress and challenged with DHA and PEDF for 15 hr. Cells were analyzed to detect Hoechst-positive apoptotic cells.
Lipidomic analysis. Human RPE primary cell cultures or ARPE-19 cells were separated from culture media and washed with 1 ml PBS. After addition of 1 ml methanol, cells were scraped from plates or millicell membranes and collected for lipid extraction. […] The instrument was set on full-scan mode, to detect parent ions, and selected reaction mode (SRM) for quantitative analysis, to detect product ions, simultaneously. […]

[4] = system: Bcl-2 and Bfl-1; test: Anti-apoptotic protein expression in ARPE-19 cells under serum starvation/H2O2/TNFα oxidative stress (Western blot); type: cell-based, human; conditions: DHA 10 to 50 nM, with or without PEDF
Experimental: as §1, §2

B1: PEDF: pigment epithelium-derived factor, a member of the serine protease inhibitor (serpin) family (protein, UniProt P36955 20-418, looked up)
Pigment epithelium-derived …: QNPASPPEEGSPDPDSTGALVEEEDPFFKVPVNKLAAAVSNFGYDLYRVRSSTSPTTNVLLSPLSVATALSALSLGAEQRTESIIHRALYYDLISSPDIHGTYKELLDTVTAPQKNLKSASRIVFEKKLRIKSSFVAPLEKSYGTRPRVLTGNPRLDLQEINNWVQAQMKGKLARSTKEIPDEISILLLGVAHFKGQWVTKFDSRKTSLEDFYLDEERTVRVPMMSDPKAVLRYGLDSDLSCKIAQLPLTGSMSIIFFLPLKVTQNLTLIEESLTSEFIHDIDRELKTVQAVLTVPKLKLSYEGEVTKSLQEMKLQSLFDSPDFSKITGKPIKLTQVEHRAGFEWNEDGAGTTPSPGLQPAHLTFPLDYHLNQPFIFVLRDTDTGALLFIGKILDPRGP
Bid, Bax and Bad pro-apoptotic protein expression [1]: unable to alter the expression of pro- and anti-apoptotic proteins
NPD1 synthesis and release through the apical surface ([2]; growth factors 20 ng/ml added to apical medium): by far the most potent stimulator of NPD1 synthesis
NPD1 release, neurotrophin added to the apical medium ([2]; increasing concentrations): concentration-dependent increases in NPD1 release only on the apical side
NPD1 release, neurotrophin added to the basal medium ([2]; increasing concentrations): much less NPD1 release on the apical side
NPD1 synthesis in ARPE-19 cells [3]: up-regulate NPD1 synthesis
Bcl-2 and Bfl-1 anti-apoptotic protein expression [4]: unable to alter the expression of pro- and anti-apoptotic proteins
